How the values were obtained:
[1] = test system: CFI-HSA (human serum albumin fused to the N-terminal end of wild type CFI)
[2] = test system: Complement Component 3b (C3b) in vitreous humor of African Green Monkeys

| Substance | activation (cleavage of CFI-HSA into its activated form) [1] | ratio of C3b/iC3b in vitreous humor (chemiluminescent western blot, densitometry) [2] |
| --- | --- | --- |
| recombinant furin | more than 90% activation of the protein | – |
| CFI-HSA (human serum albumin fused to the N-terminal end of wild type CFI) | – | showing a significant increase in cleavage in eyes receiveing a 1.0 mg injection of CFI-HSA compared to vehicle controls |

Reference: patent US20250177482
